B1: MBPvIL-6 (fusion of maltose binding protein, a factor Xa cleavage site and amino acids 22-204 of KSHV vIL-6) (ligand)
chain: GKLPDAPEFEKDLLIQRLNWMLWVIDECFRDLCYRTGICKGILEPAAIFHLKLPAINDTDHCGLIGFNETSCLKKLADGFFEFEVLFKFLTTEFGKSVINVDVMELLTKTLGWDIQEELNKLTKTHYSPPKFDRGLLGRLQGLKYWVRHFASFYVLSAMEKFAGQAVRVLNSIPDVTPDVHDK
modifications: biotinylated in the sgp130 interference ELISA (sites not given)
notes: range 22-204; also called recombinant vIL-6; full length MBPvIL-6; not shown: factor Xa cleavage site and vector linker between MBP and vIL-6
B2: purified recombinant human sIL-6Rα (R&D Systems) (receptor)
chain: LAPRRCPAQEVARGVLTSLPGDSVTLTCPGVEPEDNATVHWVLRKPAAGSHPSRWAGMGRRLLLRSVQLHDSGNYSCYRAGRPAGTVHLLVDVPPEEPQLSCFRKSPLSNVVCEWGPRSTPSLTTKAVLLVRKFQNSPAEDFQEPCQYSQESQKFSCQLAVPEGDSSFYIVSMCVASSVGSKFSKTQTFQGCGILQPDPPANITVTAVARNPRWLSVTWQDPHSWNSSFYRLRFELRYRAERSKTFTTWMVKDLQHHCVIHDAWSGLRHVVQLRAQEEFGQGEWSEWSPEAMGTPWTESRSPPAENEVSTPMQALTTNKDDDNILFRDSANATSLPVQDSSSVPLP
notes: extracellular domain; Bought; also called soluble IL-6Rα
B3: sgp130-Fc (R&D Systems), a fusion protein of sgp130 and human IgG Fc (Fc fusion)
chain: ELLDPCGYISPESPVVQLHSNFTAVCVLKEKCMDYFHVNANYIVWKTNHFTIPKEQYTIINRTASSVTFTDIASLNIQLTCNILTFGQLEQNVYGITIISGLPPEKPKNLSCIVNEGKKMRCEWDGGRETHLETNFTLKSEWATHKFADCKAKRDTPTSCTVDYSTVYFVNIEVWVEAENALGKVTSDHINFDPVYKVKPNPPHNLSVINSEELSSILKLTWTNPSIKSVIILKYNIQYRTKDASTWSQIPPEDTASTRSSFTVQDLKPFTEYVFRIRCMKEDGKGYWSDWSEEASGITYEDRPSKAPSFWYKIDPSHTQGYRTVQLVWKTLPPFEANGKILDYEVTLTRWKSHLQNYTVNATKLTVNLTNDRYLATLTVRNLVGKSDAAVLTIPACDFQATHPVMDLKAFPKDNMLWVEWTTPRESVKKYILEWCVLSDKAPCITDWQQEDGTVHRTYLRGNLAESKCYLITVTPVYADGPGSPESIKAYLKQAPPSKGPTVRTKKVGKNEAVLEWDQLPVDVQNGFIRNYTIFYRTIIGNETAVNVDSSHTEYTLSSLTSDTLYMVRMAAYTDEGGKDGPEFTFTTPKFAQGEIE
notes: extracellular domain; Immobilized on the CM5 chip in the BIAcore work; the results text calls it sgp130; also called immobilized sgp130; not shown: human IgG Fc
B4: purified recombinant human sgp130 (R&D Systems) (receptor)
chain: B3 chain
notes: extracellular domain; Used in the ELISA assays; Bought; also called soluble gp130

For experiment [1], the target named is B3. In words: SPR Kd of this filing against a previously reported Kd (1.7 nM) of the human IL-6/sIL-6Rα complex.
Experiment [2] addresses B3. In words: SPR (BIAcore 2000), sgp130-Fc immobilized on CM5, MBPvIL-6 in flow, 1:1 Langmuir binding model. (SPR reads the build-up and loss of mass on a sensor chip optically.)
The target in experiment [3] is B3. In words: SPR (BIAcore 2000), equilibrium data, Scatchard analysis, sgp130-Fc immobilized.
The target in experiment [4] is T1, maltose binding protein (MBP), control (UniProt P0AEX9 27-392 = MBP). In words: indirect ELISA, receptor immobilized.
Protocol: Reactions were visualized by using tetramethoxybenzene peroxidase substrate (Kirkegaard & Perry Laboratories, Gaithersburg, Md.), followed by 2N H2SO4. The interference of vIL-6 binding to sgp130 by mAbs was analyzed in a similar manner. […] The mixture was applied to the plates coated with sgp130 (2 μg/ml) after SuperBlock treatment. The protein complex was detected by streptavidin-HRP (1:1000; Kirkegaard & Perry Laboratories), and the peroxidase activity was visualized by tetramethoxybenzene peroxidase substrate, followed by 2N H₂SO₄. Plates were read at 450 nm with λ correction at 630 m using a microplate reader.
Experiment [5] deals with T1, maltose binding protein (MBP), control. Nature of the experiment: surface plasmon resonance (BIAcore 2000), sgp130 immobilized at 1.5 ng/mm2.

For B1, the “fold lower binding affinity than human IL-6/sIL-6Rα complex to gp130” value in experiment [1] turned out to be 1000 fold. Also, in experiment [2], the dissociation constant Kd came to 2200 nM, the koff was 0.0022 s⁻¹ and the kon came to 980 M⁻¹ s⁻¹. The equilibrium dissociation constant (Kd) in experiment [3] was 2500 nM.
With B2, in experiment [4], the binding result is “no binding”.
B3: in experiment [5], the binding result is recorded as “no binding”.
For B4, in experiment [4], the binding result is recorded as “no binding”.

As a reminder, the Kd is the concentration at which binding is half-saturated. The koff is the first-order rate constant of dissociation. Read a high koff as fast dissociation. As a reminder, the kon is the rate constant with which the complex forms. A high value points to fast association.

Values taken from patent US20060039927A1 (US Dept. of Health and Human Services, published 2006).
